Patent publication US20020064828A1

Target: full-length human presenilin 2 (PS2) expressed in HeLa cells (human) (UniProt P49810)
Test: cell-based or functional assay

Substance | cell death (floating HeLa cells), fold, on coexpression with PS2
calmyrin-EF-C mutant (E172Q) (from UniProt Q99828 2-191) | 1.05 fold
calmyrin-EF-N mutant (D127N) (from UniProt Q99828 2-191) | 1 fold
calmyrin-MYR mutant (G2A, myristoylation-deficient calmyrin) (from UniProt Q99828 3-191) | < 2.09 fold
